According to article PMC7393355, “A FRET-based screening method to detect potential inhibitors of the binding of CNNM3 to PRL2” (Scientific Reports, 2020):

T1: non-fluorescence protein-tagged PRL2 (human, UniProt Q12974-1 1-167)
T1 construct: human PRL2, NP_001356788.1, residues 1-167; Subcloned into pET28a; the limits 1-167 are printed for human PRL2 in the same paragraph; also called non-CyPet-tagged PRL2; source: E. coli Rosetta (DE3), purified (Ni-NTA, SEC)
T1 sequence (looked up): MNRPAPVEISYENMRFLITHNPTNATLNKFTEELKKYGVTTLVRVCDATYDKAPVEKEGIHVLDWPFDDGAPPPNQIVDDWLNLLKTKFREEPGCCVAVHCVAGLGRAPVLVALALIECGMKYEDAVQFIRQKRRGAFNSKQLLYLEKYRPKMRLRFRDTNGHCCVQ

T2: PRL2 (residues 1-167) with CyPet at its N-terminus (human, UniProt Q12974-1 1-167)
T2 construct: human PRL2 (phosphatase of regenerating liver 2), NP_001356788.1, residues 1-167; GS linker between CyPet and PRL2; pET22c derivative; Methods and discussion sometimes call it YPet-PRL2; also called CyPet-PRL2; CyPet-PRL2 WT; source: E. coli Rosetta (DE3), purified (Ni-NTA, SEC); not shown: CyPet (monomeric mutation A206K), N-terminal, kept
T2 sequence (looked up): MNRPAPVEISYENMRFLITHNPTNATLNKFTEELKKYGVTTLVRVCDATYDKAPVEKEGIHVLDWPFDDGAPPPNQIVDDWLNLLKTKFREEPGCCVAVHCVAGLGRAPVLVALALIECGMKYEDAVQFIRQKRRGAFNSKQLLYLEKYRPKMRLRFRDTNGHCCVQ


What was measured:
[1] = biological target: T1, non-fluorescence protein-tagged PRL2; assay: ITC; cell 20 uM PRL2, syringe 200 uM CNNM3 CBS protein, 25 C, 20 mM Tris-HCl pH 7.0, 50 mM NaCl, 1 mM TCEP; conditions: both partners purified
[2] = biological target: T2, PRL2 (residues 1-167) with CyPet at its …; assay: FRET or BRET; 30 nM CyPet-PRL2 mixed with serial dilutions of CNNM3 CBS-YPet (0-300 nM) in 96-well plates, TBS (50 mM Tris-HCl pH 8.0, 150 mM NaCl), R.T. 1 h, excitation 435 nm, emission 530 nm; conditions: both partners purified

Kd [1] [nM] | Kd [2] [nM] | Binder
15.2 ± 5 |  | non-YPet-tagged CNNM3 CBS domain (domain or fragment, human, UniProt Q8NE01 301-452, looked up, CBS domain of human CNNM3, XP_011509259.1, residues 301-452; Subcloned into pET28a; the limits 301-452 are printed for the CBS domain in the same paragraph; also called non-fluorescence-tagged CNNM3; CNNM3 CBS protein; source: E. coli Rosetta (DE3), purified (Ni-NTA, anion exchange)) YSDLSKGVLRCRTVEDVLTPLEDCFMLDASTVLDFGVLASIMQSGHTRIPVYEEERSNIVDMLYLKDLAFVDPEDCTPLSTITRFYNHPLHFVFNDTKLDAVLEEFKRGKSHLAIVQKVNNEGEGDPFYEVLGLVTLEDVIEEIIRSEILDE
 | 108 ± 16 | CNNM3 CBS domain (residues 301-452) with YPet at its C-terminus (domain or fragment, human, UniProt Q8NE01 301-452, looked up, CBS domain of human CNNM3 (cyclin M3), XP_011509259.1, residues 301-452; GS linker between the CBS domain and YPet; pET22c derivative; Methods and discussion sometimes call it CNNM3 CBS-CyPet; also called CNNM3-YPet; CNNM3 CBS-YPet; source: E. coli Rosetta (DE3), purified (Ni-NTA, anion exchange); not shown: YPet, C-terminal, kept) YSDLSKGVLRCRTVEDVLTPLEDCFMLDASTVLDFGVLASIMQSGHTRIPVYEEERSNIVDMLYLKDLAFVDPEDCTPLSTITRFYNHPLHFVFNDTKLDAVLEEFKRGKSHLAIVQKVNNEGEGDPFYEVLGLVTLEDVIEEIIRSEILDE
